This assay has as its target T1, human vascular endothelial growth factor receptor-2 Fc chimera (KDR-Fc) (human, UniProt P35968 20-764).
T1 construct: range 1-764; also called human VEGFR-2; not shown: human IgG1 Fc
In words: radioactive equilibrium binding, 1 nM KDR-Fc, % of input. The procedure:
To prepare ³⁵S-labeled binding proteins for analysis, mRNA was prepared as described above for RNA-protein fusion production but the linker ligation step was omitted. The mRNA was expressed using rabbit reticulocyte lysate translation kit (Ambion) in the presence of ³⁵S-labeled Met at 30° C. for 1 hour. Expressed protein was purified on M2-agarose Flag beads (Sigma) as described above. This procedure produced the encoded protein without the nucleic acid tail. In a direct binding assay, VEGF-R2-Fc fusions in concentrations ranging from 0 to 200 nM were added to a constant concentration of the purified protein (0.2 or 0.5 nM) and incubated at 30° C. for 1 hour in buffer B. The receptor-binder complexes were captured using Protein A magnetic beads for another 10 minutes at room temperature using a Kingfisher™ The beads were washed with six reaction volumes of buffer B. The protein was eluted from the beads with 100 μL of 0.1 M KOH. 50 μL of the reaction mixture and elution were dried onto a LumaPlate-96 (Packard) and the amount of ³⁵S on the plate was measured using a TopCount NXT instrument (Packard). The amount of fibronectin-based scaffold protein bound to the target was estimated as a percent of radioactivity eluted from Protein A magnetic beads compare to radioactivity in the reaction mixture. Nonspecific binding of fibronectin-based scaffold proteins to the beads was determined by measuring binding in the absence of KDR-Fc and represented less than 1-2% of the input. Specific binding was obtained through subtraction of nonspecific binding from total binding. Data was analyzed using the GraphPad Prizm software (GraphPad Software, Inc, San Diego, Calif.), fitted using a one site, non-linear binding equation.

T1 sequence (P35968 20-764 limits assumed, change not shown, form in doubt): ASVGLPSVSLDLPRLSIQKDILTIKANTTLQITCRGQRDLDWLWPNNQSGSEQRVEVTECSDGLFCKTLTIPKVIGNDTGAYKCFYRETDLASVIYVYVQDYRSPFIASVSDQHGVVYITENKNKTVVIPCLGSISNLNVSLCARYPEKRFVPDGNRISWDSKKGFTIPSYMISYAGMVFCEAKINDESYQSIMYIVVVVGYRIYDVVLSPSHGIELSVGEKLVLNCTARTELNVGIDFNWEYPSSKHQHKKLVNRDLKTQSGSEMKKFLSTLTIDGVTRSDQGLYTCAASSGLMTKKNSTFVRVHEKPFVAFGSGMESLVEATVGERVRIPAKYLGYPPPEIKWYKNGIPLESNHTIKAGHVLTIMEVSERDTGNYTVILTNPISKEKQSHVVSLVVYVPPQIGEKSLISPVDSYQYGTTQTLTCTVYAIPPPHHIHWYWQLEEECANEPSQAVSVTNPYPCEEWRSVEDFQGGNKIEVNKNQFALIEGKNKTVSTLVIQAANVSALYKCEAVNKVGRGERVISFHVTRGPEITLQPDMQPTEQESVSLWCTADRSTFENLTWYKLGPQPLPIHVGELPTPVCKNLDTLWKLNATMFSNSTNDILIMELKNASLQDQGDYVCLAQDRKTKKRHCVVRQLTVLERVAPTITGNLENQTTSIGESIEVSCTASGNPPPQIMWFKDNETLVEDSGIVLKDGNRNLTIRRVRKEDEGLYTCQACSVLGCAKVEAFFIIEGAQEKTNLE

B1: 1′DelE2 PR4 (designed binder)
chain: EVVAATPTSLLISWRHPHFPTRYYRITYGETGGNSPVQEFTVPLQPPTATISGLKPGVDYTITVYAVTVGQNDHELLTPISINYRT
As to B1, the “Binding to 1 nM KDR, %” value came to 16%.

B2: 1′DelD2 PR4 (designed binder)
chain: EVVAATPTSLLISWRHPHFPTRYYRITYGETGGNSPVQEFTVPLQPPTATISGLKPGVDYTITVYAVTVAKNDHELLTPISINYRT
In the case of B2, the “Binding to 1 nM KDR, %” value worked out at 17%.

B3: 2′Del C11 PR4 (designed binder)
chain: EVVAATPTSLLISWRHPHFPTRYYRITYGETGGNSPVQEFTVPLQPPTATISGLKPGVDYTITVYAVTAGLNEHELLIPISINYRT
Regarding B3, the “Binding to 1 nM KDR, %” value turned out to be 34%.

B4: 1′DelE7 PR4 (designed binder)
chain: EVVAATPTSLLISWRHPHFPTRYYRITYGETGGNSPVQEFTVPLQPPTATISGLKPGVDYTITVYAVTVAQNGHELFTPISINYRT
Turning to B4, the “Binding to 1 nM KDR, %” value stood at 22%.

B5: 1′DelE6 PR4 (designed binder)
chain: EVVAATPTSLLISWRHPHFPTRYYRITYGETGGNSPVQEFTVPLQPPTATISGLKPGVDYTITVYAVTLAQNDRELLTPISINYRT
B5: the “Binding to 1 nM KDR, %” value was found to be 24%.

B6: 2′Del C8 PR4 (designed binder)
chain: EVVAATPTSLLISWRHPHFPTRYYRITYGETGGNSPVQEFTVPLQPPTATISGLKPGVDYTITVYAVTTAHNGHELLTPISINYRT
With B6, the “Binding to 1 nM KDR, %” value stood at 15%.

B7: 2′Del D1 PR4 (designed binder)
chain: EVVAATPTSLLISWRHPHFPTRYYRITYGETGGNSPVQEFTVPLQPPTATISGLKPGVDYTITVYAVTLEQNDRVLLTPISINYRT
With B7, the “Binding to 1 nM KDR, %” value stood at 28%.

B8: 1′Del G10 PR4 (designed binder)
chain: EVVAATPTSLLISWRHPHFPTRYYRITYGETGGNSPVQEFTVPLQPPTATISGLKPGVDYTITVYAVTMAQNGHKLMTPISINYRT
With B8, the “Binding to 1 nM KDR, %” value turned out to be 36%.

B9: 1′DelD1 PR4 (designed binder)
chain: EVVAATPTSLLISWRHPHFPTRYYRITYGETGGNSPVQEFTVPLQPPTATISGLKPGVDYTITVYAVTVTQNDHELLTPISINYRT
B9: the “Binding to 1 nM KDR, %” value turned out to be 16%.

B10: 2′Del B2 PR4 (designed binder)
chain: EVVAATPTSLLISWRHPHFPTRYYRITYGETGGNSPVQEFTVPLQPPTATISGLKPGVDYTITVYAVTTGWNGNELFTPISINYRT
As to B10, the “Binding to 1 nM KDR, %” value is 29%.

B11: 1′DelA1 PR4 (designed binder)
chain: EVVAATPTSLLISWRHPHFPTRYYRITYGETGGNSPVQEFTVPLQPPTATISGLKPGVDYTITVYAVTVAQNDHELLTPISINYRT
On to B11, for which the “Binding to 1 nM KDR, %” value is 14%.

B12: 2′Del C6 PR4 (designed binder)
chain: EVVAATPTSLLISWRHPHFPTRYYRITYGETGGNSPVQEFTVPLQPPTATISGLKPGVDYTITVYAVTMGFMAHELMVPISINYRT
As for B12, the “Binding to 1 nM KDR, %” value was found to be 34%.

B13: 1′DelH5 PR4 (designed binder)
chain: EVVAATPTSLLISWRHPHFPTRYYRITYGETGGNSPVQEFTVPLQPPTATISGLKPGVDYTITVYAVTVAQNDRELFTPISINYRT
Regarding B13, the “Binding to 1 nM KDR, %” value amounted to 17%.

B14: 1′DelA2 PR4 (designed binder)
chain: EVVAATPTSLLISWRHPHFPTRYYRITYGETGGNSPVQEFTVPLQPPTATISGLKPGVDYTITVYAVTVAQNGHQLFTPISINYRT
As for B14, the “Binding to 1 nM KDR, %” value came out at 23%.

B15: 1′DelF3 PR4 (designed binder)
chain: EVVAATPTSLLISWRHPHFPTRYYRITYGETGGNSPVQEFTVPLQPPTATISGLKPGVDYTITVYAVTMAQNDHKLFTPISINYRT
B15: the “Binding to 1 nM KDR, %” value amounted to 16%.

B16: 2′Del D5 PR4 (designed binder)
chain: EVVAATPTSLLISWRHPHFPTRYYRITYGETGGNSPVQEFTVPLQPPTATISGLKPGVDYTITVYAVTVAWNDHMLMTPISINYRT
Turning to B16, the “Binding to 1 nM KDR, %” value came out at 18%.

B17: 1′DelH12 PR4 (designed binder)
chain: EVVAATPTSLLISWRHPHFPTRYYRITYGETGGNSPVQEFTVPLQPPTATISGLKPGVDYTITVYAVTVAQNERELFTPISINYRT
Take B17: the “Binding to 1 nM KDR, %” value was found to be 18%.

B18: 1′DelH10 PR4 (designed binder)
chain: EVVAATPTSLLISWRHPHFPTRYYRITYGETGGNSPVQEFTVPLQPPTATISGLKPGVDYTITVYAVTFAQNDHELLTPISINYRT
For the molecule B18, the “Binding to 1 nM KDR, %” value was 17%.

B19: 2′Del C5 PR4 (designed binder)
chain: EVVAATPTSLLISWRHPHFPTRYYRITYGETGGNSPVQEFTVPLQPPTATISGLKPGVDYTITVYAVTPGHNDHELMVPISINYRT
As to B19, the “Binding to 1 nM KDR, %” value is 26%.

B20: 2′Del A11 PR4 (designed binder)
chain: EVVAATPTSLLISWRHPHFPTRYYRITYGETGGNSPVQEFTVPLQPPTATISGLKPGVDYTITVYAVTEDIRVLWLNTTISINYRT
As to B20, the “Binding to 1 nM KDR, %” value amounted to 16%.

B21: 2′Del A2 PR4 (designed binder)
chain: EVVAATPTSLLISWRHPHFPTRYYRITYGETGGNSPVQEFTVPLQPPTATISGLKPGVDYTITVYAVTGGRNGHTLLTPISINYRT
Turning to B21, the “Binding to 1 nM KDR, %” value is 17%.

B22: 1′DelD5 PR4 (designed binder)
chain: EVVAATPTSLLISWRHPHFPTRYYRITYGETGGNSPVQEFTVPLQPPTATISGLKPGVDYTITVYAVTVGQNHHELFTPISINYRT
Take B22: the “Binding to 1 nM KDR, %” value turned out to be 17%.

B23: 2′Del D10 PR4 (designed binder)
chain: EVVAATPTSLLISWRHPHFPTRYYRITYGETGGNSPVQEFTVPLQPPTATISGLKPGVDYTITVYAVTLADNARELLTPISINYRT
On to B23, for which the “Binding to 1 nM KDR, %” value came out at 34%.

B24: 2′Del C1 PR4 (designed binder)
chain: EVVAATPTSLLISWRHPHFPTRYYRITYGETGGNSPVQEFTVPLQPPTATISGLKPGVDYTITVYAVTAGLDEHELLIPISINYRT
B24: the “Binding to 1 nM KDR, %” value was 32%.

B25: 2′Del B5 PR4 (designed binder)
chain: EVVAATPTSLLISWRHPHFPTRYYRITYGETGGNSPVQEFTVPLQPPTATISGLKPGVDYTITVYAVTAGRHDHELIIPISINYRT
Turning to B25, the “Binding to 1 nM KDR, %” value turned out to be 33%.

B26: 2′Del B3 PR4 (designed binder)
chain: EVVAATPTSLLISWRHPHFPTRYYRITYGETGGNSPVQEFTVPLQPPTATISGLKPGVDYTITVYAVTDAPNGRELMVPISINYRT
With B26, the “Binding to 1 nM KDR, %” value came out at 17%.

B27: 2′Del D3 PR4 (designed binder)
chain: EVVAATPTSLLISWRHPHFPTRYYRITYGETGGNSPVQEFTVPLQPPTATISGLKPGVDYTITVYAVTSGLNDRVLFIPISINYRT
For B27, the “Binding to 1 nM KDR, %” value amounted to 38%.

B28: 2′Del B4 PR4 (designed binder)
chain: EVVAATPTSLLISWRHPHFPTRYYRITYGETGGNSPVQEFTVPLQPPTATISGLKPGVDYTITVYAVTSGHNGHEVMTPISINYRT
With B28, the “Binding to 1 nM KDR, %” value was found to be 31%.

The record behind these values is patent US20120283184A1 (published 2012).
